This assay concerns the target human IgG (coated on 96-well plates to form immune complexes, IC) (human). The experiment in a line: cell-based or functional assay.

Substance “Human sCD32 (SM101), recombinant soluble human FcγRIIB (from UniProt P31994 46-221) (receptor)” displayed an ROS production by IC-activated human neutrophils (scale: % reduction of ROS production at 0.01 mg/ml sCD32) of 30, an ROS production by IC-activated human neutrophils (scale: % reduction of ROS production at 0.1 mg/ml sCD32) of 65 and an ROS production by IC-activated human neutrophils (scale: % reduction of ROS production at 0.5 mg/ml sCD32) of 75.

The record behind these values is US20160235814A1.
